Source: publication doi:10.1101/2025.09.11.675682 (2025)

B1: PLC-γ1 (Phospholipase C-γ1), 1–1219 (enzyme)
chain: MAGAASPCANGCGPGAPSDAEVLHLCRSLEVGTVMTLFYSKKSQRPERKTFQVKLETRQITWSRGADKIEGAIDIREIKEIRPGKTSRDFDRYQEDPAFRPDQSHCFVILYGMEFRLKTLSLQATSEDEVNMWIKGLTWLMEDTLQAPTPLQIERWLRKQFYSVDRNREDRISAKDLKNMLSQVNYRVPNMRFLRERLTDLEQRSGDITYGQFAQLYRSLMYSAQKTMDLPFLEASTLRAGERPELCRVSLPEFQQFLLDYQGELWAVDRLQVQEFMLSFLRDPLREIEEPYFFLDEFVTFLFSKENSVWNSQLDAVCPDTMNNPLSHYWISSSHNTYLTGDQFSSESSLEAYARCLRMGCRCIELDCWDGPDGMPVIYHGHTLTTKIKFSDVLHTIKEHAFVASEYPVILSIEDHCSIAQQRNMAQYFKKVLGDTLLTKPVEISADGLPSPNQLKRKILIKHKKLAEGSAYEEVPTSMMYSENDISNSIKNGILYLEDPVNHEWYPHYFVLTSSKIYYSEETSSDQGNEDEEEPKEVSSSTELHSNEKWFHGKLGAGRDGRHIAERLLTEYCIETGAPDGSFLVRESETFVGDYTLSFWRNGKVQHCRIHSRQDAGTPKFFLTDNLVFDSLYDLITHYQQVPLRCNEFEMRLSEPVPQTNAHESKEWYHASLTRAQAEHMLMRVPRDGAFLVRKRNEPNSYAISFRAEGKIKHCRVQQEGQTVMLGNSEFDSLVDLISYYEKHPLYRKMKLRYPINEEALEKIGTAEPDYGALYEGRNPGFYVEANPMPTFKCAVKALFDYKAQREDELTFIKSAIIQNVEKQEGGWWRGDYGGKKQLWFPSNYVEEMVNPVALEPEREHLDENSPLGDLLRGVLDVPACQIAIRPEGKNNRLFVFSISMASVAHWSLDVAADSQEELQDWVKKIREVAQTADARLTEGKIMERRKKIALELSELVVYCRPVPFDEEKIGTERACYRDMSSFPETKAEKYVNKAKGKKFLQYNRLQLSRIYPKGQRLDSSNYDPLPMWICGSQLVALNFQTPDKPMQMNQALFMTGRHCGYVLQPSTMRDEAFDPFDKSSLRGLEPCAISIEVLGARHLPKNGRGIVCPFVEIEVAGAEYDSTKQKTEFVVDNGLNPVWPAKPFHFQISNPEFAFLRFVVYEEDMFSDQNFLAQATFPVKGLKTGYRAVPLKNNYSEDLELASLLIKIDIFPAKENGD

How the values were obtained:
Test in all cases: ITC
[1] = target: B1
[2] = target: SLP-76 PRR peptide (aa 185–200), high affinity mutant (UniProt Q13094 185-200)
[3] = target: T1, LAT 125-178 (Homo sapiens, UniProt O43561)
T1 chain: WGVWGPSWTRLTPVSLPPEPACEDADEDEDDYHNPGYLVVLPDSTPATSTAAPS

[4] = target: T2, SLP-76 159-533 (Homo sapiens, UniProt Q13094)
T2 chain: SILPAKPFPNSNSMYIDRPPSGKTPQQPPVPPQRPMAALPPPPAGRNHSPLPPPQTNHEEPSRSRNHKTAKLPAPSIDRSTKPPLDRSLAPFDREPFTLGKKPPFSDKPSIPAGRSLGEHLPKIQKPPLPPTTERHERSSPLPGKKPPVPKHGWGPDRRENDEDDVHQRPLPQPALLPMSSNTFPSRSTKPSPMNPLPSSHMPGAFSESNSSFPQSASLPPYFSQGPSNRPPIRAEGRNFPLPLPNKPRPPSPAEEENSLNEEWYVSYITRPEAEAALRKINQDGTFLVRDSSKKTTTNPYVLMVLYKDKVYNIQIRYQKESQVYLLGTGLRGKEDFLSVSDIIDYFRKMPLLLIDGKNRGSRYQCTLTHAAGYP

QPPVPPQRPMAALPPP [SLP-76 PRR peptide (aa 185–200), wild type]
Kd [1]: 2360 nM

B1
Kd [2]: 1000 nM

B2: PLC-γ1 1-1219 (protein)
chain: MAGAASPCANGCGPGAPSDAEVLHLCRSLEVGTVMTLFYSKKSQRPERKTFQVKLETRQITWSRGADKIEGAIDIREIKEIRPGKTSRDFDRYQEDPAFRPDQSHCFVILYGMEFRLKTLSLQATSEDEVNMWIKGLTWLMEDTLQAPTPLQIERWLRKQFYSVDRNREDRISAKDLKNMLSQVNYRVPNMRFLRERLTDLEQRSGDITYGQFAQLYRSLMYSAQKTMDLPFLEASTLRAGERPELCRVSLPEFQQFLLDYQGELWAVDRLQVQEFMLSFLRDPLREIEEPYFFLDEFVTFLFSKENSVWNSQLDAVCPDTMNNPLSHYWISSSHNTYLTGDQFSSESSLEAYARCLRMGCRCIELDCWDGPDGMPVIYHGHTLTTKIKFSDVLHTIKEHAFVASEYPVILSIEDHCSIAQQRNMAQYFKKVLGDTLLTKPVEISADGLPSPNQLKRKILIKHKKLAEGSAYEEVPTSMMYSENDISNSIKNGILYLEDPVNHEWYPHYFVLTSSKIYYSEETSSDQGNEDEEEPKEVSSSTELHSNEKWFHGKLGAGRDGRHIAERLLTEYCIETGAPDGSFLVRESETFVGDYTLSFWRNGKVQHCRIHSRQDAGTPKFFLTDNLVFDSLYDLITHYQQVPLRCNEFEMRLSEPVPQTNAHESKEWYHASLTRAQAEHMLMRVPRDGAFLVRKRNEPNSYAISFRAEGKIKHCRVQQEGQTVMLGNSEFDSLVDLISYYEKHPLYRKMKLRYPINEEALEKIGTAEPDYGALYEGRNPGFYVEANPMPTFKCAVKALFDYKAQREDELTFIKSAIIQNVEKQEGGWWRGDYGGKKQLWFPSNYVEEMVNPVALEPEREHLDENSPLGDLLRGVLDVPACQIAIRPEGKNNRLFVFSISMASVAHWSLDVAADSQEELQDWVKKIREVAQTADARLTEGKIMERRKKIALELSELVVYCRPVPFDEEKIGTERACYRDMSSFPETKAEKYVNKAKGKKFLQYNRLQLSRIYPKGQRLDSSNYDPLPMWICGSQLVALNFQTPDKPMQMNQALFMTGRHCGYVLQPSTMRDEAFDPFDKSSLRGLEPCAISIEVLGARHLPKNGRGIVCPFVEIEVAGAEYDSTKQKTEFVVDNGLNPVWPAKPFHFQISNPEFAFLRFVVYEEDMFSDQNFLAQATFPVKGLKTGYRAVPLKNNYSEDLELASLLIKIDIFPAKENGD
modifications: pY132, pY171
Kd [3]: 84 nM

B3: Gads 1-322 (protein)
chain: MEAVAKFDFTASGEDELSFHTGDVLKILSNQEEWFKAELGSQEGYVPKNFIDIQFPKWFHEGLSRHQAENLLMGKEVGFFIIRASQSSPGDFSISVRHEDDVQHFKVMRDNKGNYFLWTEKFPSLNKLVDYYRTNSISRQKQIFLRDRTREDQGHRGNSLDRRSQGGPHLSGAVGEEIRPSMNRKLSDHPPTLPLQQHQHQPQPPQYAPAPQQLQQPPQQRYLQHHHFHQERRGGSLDINDGHCGTGLGSEMNAALMHRRHTDPVQLQAAGRVRWARALYDFEALEDDELGFHSGEVVEVLDSSNPSWWTGRLHNKLGLFPA
Kd [4]: 3.6 nM

B4: Gads 1-322 (protein)
chain: MEAVAKFDFTASGEDELSFHTGDVLKILSNQEEWFKAELGSQEGYVPKNFIDIQFPKWFHEGLSRHQAENLLMGKEVGFFIIRASQSSPGDFSISVRHEDDVQHFKVMRDNKGNYFLWTEKFPSLNKLVDYYRTNSISRQKQIFLRDRTREDQGHRGNSLDRRSQGGPHLSGAVGEEIRPSMNRKLSDHPPTLPLQQHQHQPQPPQYAPAPQQLQQPPQQRYLQHHHFHQERRGGSLDINDGHCGTGLGSEMNAALMHRRHTDPVQLQAAGRVRWARALYDFEALEDDELGFHSGEVVEVLDSSNPSWWTGRLHNKLGLFPA
modifications: pY132, pY171
Kd [3]: 213 nM
